In publication PMC4241754:

Molecular target: WlbA from Thermus thermophilus (Thermus thermophilus)
Experiment: crystal structure

stoichiometry N: 4
Substance: WlbA from Thermus thermophilus (enzyme)
